For orientation: Ki means a dissociation constant, usually derived from enzyme kinetics or from competition with a known ligand. A lower Ki goes with a stronger hold on the target.

The target in test [1] is T1, secreted, soluble Kex2 (Saccharomyces cerevisiae, UniProt P13134 114-613, limits assumed).
T1 construct: Secreted, soluble construct; also called kexin
T1 sequence (looked up): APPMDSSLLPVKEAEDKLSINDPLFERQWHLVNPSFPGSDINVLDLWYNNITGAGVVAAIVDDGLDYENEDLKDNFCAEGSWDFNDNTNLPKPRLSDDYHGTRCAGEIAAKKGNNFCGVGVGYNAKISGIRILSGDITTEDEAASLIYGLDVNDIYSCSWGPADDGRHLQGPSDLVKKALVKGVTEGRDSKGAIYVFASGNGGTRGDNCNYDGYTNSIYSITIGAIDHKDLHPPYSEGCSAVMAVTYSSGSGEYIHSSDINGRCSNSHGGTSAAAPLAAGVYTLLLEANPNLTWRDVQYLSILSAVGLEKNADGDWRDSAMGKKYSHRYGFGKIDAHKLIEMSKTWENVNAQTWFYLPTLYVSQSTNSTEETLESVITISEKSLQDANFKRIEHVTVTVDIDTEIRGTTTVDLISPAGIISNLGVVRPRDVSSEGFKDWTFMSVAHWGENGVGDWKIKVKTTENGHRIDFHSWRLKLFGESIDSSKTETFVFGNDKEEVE
Nature of the test: enzyme inhibition, purified variant; Kassoc.

The target of test [2] is T2, secreted, soluble furin (human, UniProt P09958 108-715, limits assumed).
T2 construct: Secreted, soluble construct; also called human furin
The test is described as follows: enzyme inhibition, purified variant; Kassoc.

Test [3] addresses T3, human PC7 (human, UniProt Q16549 142-667, limits assumed).
T3 sequence (looked up): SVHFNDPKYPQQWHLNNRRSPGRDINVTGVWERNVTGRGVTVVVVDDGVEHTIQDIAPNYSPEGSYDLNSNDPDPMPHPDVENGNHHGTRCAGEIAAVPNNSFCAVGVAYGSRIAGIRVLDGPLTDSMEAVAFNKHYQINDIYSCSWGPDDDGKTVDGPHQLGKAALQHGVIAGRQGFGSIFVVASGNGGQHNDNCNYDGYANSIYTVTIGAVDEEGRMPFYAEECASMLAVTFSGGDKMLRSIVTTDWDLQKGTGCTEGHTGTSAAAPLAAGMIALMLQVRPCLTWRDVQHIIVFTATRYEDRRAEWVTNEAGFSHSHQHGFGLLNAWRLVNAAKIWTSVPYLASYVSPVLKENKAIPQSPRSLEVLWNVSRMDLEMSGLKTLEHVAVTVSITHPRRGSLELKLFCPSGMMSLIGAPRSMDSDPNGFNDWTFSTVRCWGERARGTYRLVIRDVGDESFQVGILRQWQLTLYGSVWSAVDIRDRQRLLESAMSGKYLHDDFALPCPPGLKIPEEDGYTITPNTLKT
The test is described as follows: enzyme inhibition, purified variant; Kassoc.

Test [4] addresses T1, secreted, soluble Kex2. Nature of the test: equilibrium enzyme inhibition.
The target of test [5] is T2, secreted, soluble furin. The test is described as follows: equilibrium enzyme inhibition.
Test [6] addresses T1, secreted, soluble Kex2. Nature of the test: enzyme inhibition, purified variant. Here is the method:
(§1) Affinities of eglin variants with secreted, soluble Kex2 (hereafter “Kex2”; Brenner, C. and Fuller, R. S. (1992) Proc. Natl. Acad. Sci. USA 89: 922-926) and secreted, soluble furin (hereafter, “furin”; Bravo, D. A. et al (1994) J. Biol. Chem. 269: 25830-25837; and Komiyama & Fuller (2000) Biochemistry 39: 15156-15165) were measured by incubating variants with the enzymes (˜0.5 to 2.0 nM) for 45 min to 1 h at 21° C. in one of two enzyme assay buffers. For Kex2, the buffer was 200 mM Bistris (pH 7.27) containing 1 mM CaCl₂ and 0.1% Triton X-100; and for furin, the buffer was 20 mM NaMES (pH 7.0) containing 1 mM CaCl₂ and 0.1% Triton X-100 for furin. 100 to 200 μL aliquots of reaction mixtures were transferred into triplicate wells of opaque 96 well plates (Costar), and residual enzyme activity was measured with an fmax fluorescence micro plate reader (Molecular Devices) by monitoring hydrolysis of a fluorogenic substrate Boc-Arg-Val-Arg-Arg-MCA. Data were graphically analyzed (KaleidaGraph) with an equation developed by Green and Work (1953). Site-directed mutagenesis at P2 and P6 of eglin c generated temporary inhibitors (Table 3) and exhausted possibility to improve affinity further with this approach.

The target in test [7] is T2, secreted, soluble furin. The test is described as follows: enzyme inhibition, purified variant. Here is the method:
as §1

In test [8] the target is T4, subtilisin Carlsberg (UniProt P00780 106-379).
T4 sequence (looked up): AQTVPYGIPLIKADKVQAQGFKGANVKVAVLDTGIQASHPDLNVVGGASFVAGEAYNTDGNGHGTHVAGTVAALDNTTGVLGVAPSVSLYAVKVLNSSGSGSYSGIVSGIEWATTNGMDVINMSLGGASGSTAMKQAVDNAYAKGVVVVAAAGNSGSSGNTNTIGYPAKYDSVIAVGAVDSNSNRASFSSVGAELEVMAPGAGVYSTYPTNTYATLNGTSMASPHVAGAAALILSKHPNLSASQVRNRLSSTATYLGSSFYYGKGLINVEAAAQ
Nature of the test: enzyme inhibition.

T2 sequence (P09958 108-715 limits assumed): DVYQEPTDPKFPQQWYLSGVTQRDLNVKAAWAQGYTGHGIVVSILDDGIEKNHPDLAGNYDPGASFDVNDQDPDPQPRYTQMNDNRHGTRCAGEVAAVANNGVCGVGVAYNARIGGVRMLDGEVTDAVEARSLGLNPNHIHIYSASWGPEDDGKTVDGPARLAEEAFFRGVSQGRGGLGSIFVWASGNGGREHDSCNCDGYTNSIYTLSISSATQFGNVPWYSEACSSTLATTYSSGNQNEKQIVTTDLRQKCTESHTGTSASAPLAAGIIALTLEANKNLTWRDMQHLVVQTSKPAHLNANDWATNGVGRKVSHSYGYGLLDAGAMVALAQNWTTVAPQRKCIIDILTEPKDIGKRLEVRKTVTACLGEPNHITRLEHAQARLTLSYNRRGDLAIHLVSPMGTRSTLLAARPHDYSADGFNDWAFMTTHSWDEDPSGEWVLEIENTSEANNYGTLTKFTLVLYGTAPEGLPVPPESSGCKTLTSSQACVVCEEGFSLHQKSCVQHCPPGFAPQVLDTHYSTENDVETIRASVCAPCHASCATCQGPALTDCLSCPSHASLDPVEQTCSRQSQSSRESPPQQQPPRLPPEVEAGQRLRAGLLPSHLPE

B1: R4R1-eglin (designed binder)
chain: SMGSELKSFPEVVGKTVDQAREYFTLHYPQYDVYFLPEGSRVTRDLRYNRVRVFYNPGTNVVNHVPHVG
notes: N-terminal Met removed; also called Tyr49-R4R1-; D33Y49
Consider B1, for which the Ka in test [1] turned out to be 1.1e+09 M⁻¹; in test [2] it was 4e+08 M⁻¹; in test [3], 7.7e+08 M⁻¹; in test [8], 6.5e+08 M⁻¹. Also, the “fold decrease in affinity relative to M4R1-eglin” value in test [4] is 2.5 fold. The “fold stronger binding by Kex2 than by furin” value in test [4] is approximately 3 fold. For the same molecule, the “fold higher affinity than L1-eglin” value in test [5] came to 46000 fold. Besides, the “fold increase in affinity relative to M4R1-eglin” value in test [5] was 1430 fold. Besides, the Ki in test [6] came to 0.91 nM; in test [7], 2.5 nM. The “Ki ratio (to R4R1- template)” value in test [6] and in test [7] was 1 in each case.

Source of the values: patent publication US20050203007A1 (REGENTS OF THE UNIVERSITY OF MICHIGAN, published 2005).
